# Results as given in the MegaScale stability set (Tsuboyama et al. 2023).
# B1: 2K2A (parent)
# chain: ELREAFRLYDKEGNGYISTDVMREILAELDETLSSEDLDAMIDEIDADGSGTVDFEEFMGVMT
# Variants of: B1
# Assay: folding stability dG (cDNA display proteolysis); higher = more stable
# Settings: PBS, room temperature
row,Variant,folding stability dG [kcal/mol]
1,ELREAFRLYDKEGNGYISTDVMREILAELDETLSSEDLDADIDEIDADGSGTVDFEEFMGVMT [M41D],-0.547
2,ELREAFRLYDKEGNGYISTDVMREILAELDETLSSEDLDAEIDEIDADGSGTVDFEEFMGVMT [M41E],-0.173
3,ELREAFRLYDKEGNGYISTDVMREILAELDETLSSEDLDAFIDEIDADGSGTVDFEEFMGVMT [M41F],1.5
4,ELREAFRLYDKEGNGYISTDVMREILAELDETLSSEDLDAGIDEIDADGSGTVDFEEFMGVMT [M41G],0.01
5,ELREAFRLYDKEGNGYISTDVMREILAELDETLSSEDLDAHIDEIDADGSGTVDFEEFMGVMT [M41H],0.645
6,ELREAFRLYDKEGNGYISTDVMREILAELDETLSSEDLDAIIDEIDADGSGTVDFEEFMGVMT [M41I],1.86
7,ELREAFRLYDKEGNGYISTDVMREILAELDETLSSEDLDAKIDEIDADGSGTVDFEEFMGVMT [M41K],1.49
8,ELREAFRLYDKEGNGYISTDVMREILAELDETLSSEDLDALIDEIDADGSGTVDFEEFMGVMT [M41L],2.03
9,ELREAFRLYDKEGNGYISTDVMREILAELDETLSSEDLDANIDEIDADGSGTVDFEEFMGVMT [M41N],-0.4
10,ELREAFRLYDKEGNGYISTDVMREILAELDETLSSEDLDAPIDEIDADGSGTVDFEEFMGVMT [M41P],-0.862
11,ELREAFRLYDKEGNGYISTDVMREILAELDETLSSEDLDAQIDEIDADGSGTVDFEEFMGVMT [M41Q],0.887
12,ELREAFRLYDKEGNGYISTDVMREILAELDETLSSEDLDARIDEIDADGSGTVDFEEFMGVMT [M41R],1.47
13,ELREAFRLYDKEGNGYISTDVMREILAELDETLSSEDLDASIDEIDADGSGTVDFEEFMGVMT [M41S],0.166
14,ELREAFRLYDKEGNGYISTDVMREILAELDETLSSEDLDATIDEIDADGSGTVDFEEFMGVMT [M41T],0.556
15,ELREAFRLYDKEGNGYISTDVMREILAELDETLSSEDLDAVIDEIDADGSGTVDFEEFMGVMT [M41V],1.21
16,ELREAFRLYDKEGNGYISTDVMREILAELDETLSSEDLDAWIDEIDADGSGTVDFEEFMGVMT [M41W],2.43
17,ELREAFRLYDKEGNGYISTDVMREILAELDETLSSEDLDAYIDEIDADGSGTVDFEEFMGVMT [M41Y],1.61
18,ELREAFRLYDKEGNGYISTDVMREILAELDETLSSEDLDAMADEIDADGSGTVDFEEFMGVMT [I42A],-0.231
19,ELREAFRLYDKEGNGYISTDVMREILAELDETLSSEDLDAMCDEIDADGSGTVDFEEFMGVMT [I42C],0.098
20,ELREAFRLYDKEGNGYISTDVMREILAELDETLSSEDLDAMDDEIDADGSGTVDFEEFMGVMT [I42D],-0.854
21,ELREAFRLYDKEGNGYISTDVMREILAELDETLSSEDLDAMEDEIDADGSGTVDFEEFMGVMT [I42E],-0.498
22,ELREAFRLYDKEGNGYISTDVMREILAELDETLSSEDLDAMFDEIDADGSGTVDFEEFMGVMT [I42F],1.08

row,Variant,folding stability dG [kcal/mol]
1,ELREAFRLYDKEGNGYISTDVMREILAELDETLSSEDLDAMGDEIDADGSGTVDFEEFMGVMT [I42G],-0.688
2,ELREAFRLYDKEGNGYISTDVMREILAELDETLSSEDLDAMHDEIDADGSGTVDFEEFMGVMT [I42H],-0.459
3,ELREAFRLYDKEGNGYISTDVMREILAELDETLSSEDLDAMKDEIDADGSGTVDFEEFMGVMT [I42K],-0.287
4,ELREAFRLYDKEGNGYISTDVMREILAELDETLSSEDLDAMLDEIDADGSGTVDFEEFMGVMT [I42L],1.73
5,ELREAFRLYDKEGNGYISTDVMREILAELDETLSSEDLDAMMDEIDADGSGTVDFEEFMGVMT [I42M],1.72
6,ELREAFRLYDKEGNGYISTDVMREILAELDETLSSEDLDAMNDEIDADGSGTVDFEEFMGVMT [I42N],-0.359
7,ELREAFRLYDKEGNGYISTDVMREILAELDETLSSEDLDAMPDEIDADGSGTVDFEEFMGVMT [I42P],-0.739
8,ELREAFRLYDKEGNGYISTDVMREILAELDETLSSEDLDAMQDEIDADGSGTVDFEEFMGVMT [I42Q],-0.244
9,ELREAFRLYDKEGNGYISTDVMREILAELDETLSSEDLDAMRDEIDADGSGTVDFEEFMGVMT [I42R],-0.918
10,ELREAFRLYDKEGNGYISTDVMREILAELDETLSSEDLDAMSDEIDADGSGTVDFEEFMGVMT [I42S],-0.099
11,ELREAFRLYDKEGNGYISTDVMREILAELDETLSSEDLDAMTDEIDADGSGTVDFEEFMGVMT [I42T],0.392
12,ELREAFRLYDKEGNGYISTDVMREILAELDETLSSEDLDAMVDEIDADGSGTVDFEEFMGVMT [I42V],1.34
13,ELREAFRLYDKEGNGYISTDVMREILAELDETLSSEDLDAMWDEIDADGSGTVDFEEFMGVMT [I42W],0.22
14,ELREAFRLYDKEGNGYISTDVMREILAELDETLSSEDLDAMYDEIDADGSGTVDFEEFMGVMT [I42Y],-0.094
15,ELREAFRLYDKEGNGYISTDVMREILAELDETLSSEDLDAMIAEIDADGSGTVDFEEFMGVMT [D43A],2.29
16,ELREAFRLYDKEGNGYISTDVMREILAELDETLSSEDLDAMICEIDADGSGTVDFEEFMGVMT [D43C],2.1
17,ELREAFRLYDKEGNGYISTDVMREILAELDETLSSEDLDAMIEEIDADGSGTVDFEEFMGVMT [D43E],2.03
18,ELREAFRLYDKEGNGYISTDVMREILAELDETLSSEDLDAMIFEIDADGSGTVDFEEFMGVMT [D43F],2.13
19,ELREAFRLYDKEGNGYISTDVMREILAELDETLSSEDLDAMIGEIDADGSGTVDFEEFMGVMT [D43G],1.87
20,ELREAFRLYDKEGNGYISTDVMREILAELDETLSSEDLDAMIHEIDADGSGTVDFEEFMGVMT [D43H],2.16
21,ELREAFRLYDKEGNGYISTDVMREILAELDETLSSEDLDAMIIEIDADGSGTVDFEEFMGVMT [D43I],2.04
22,ELREAFRLYDKEGNGYISTDVMREILAELDETLSSEDLDAMIKEIDADGSGTVDFEEFMGVMT [D43K],2.26

row,Variant,folding stability dG [kcal/mol]
1,ELREAFRLYDKEGNGYISTDVMREILAELDETLSSEDLDAMILEIDADGSGTVDFEEFMGVMT [D43L],2.23
2,ELREAFRLYDKEGNGYISTDVMREILAELDETLSSEDLDAMIMEIDADGSGTVDFEEFMGVMT [D43M],2.32
3,ELREAFRLYDKEGNGYISTDVMREILAELDETLSSEDLDAMINEIDADGSGTVDFEEFMGVMT [D43N],2.2
4,ELREAFRLYDKEGNGYISTDVMREILAELDETLSSEDLDAMIPEIDADGSGTVDFEEFMGVMT [D43P],0.558
5,ELREAFRLYDKEGNGYISTDVMREILAELDETLSSEDLDAMIQEIDADGSGTVDFEEFMGVMT [D43Q],2.17
6,ELREAFRLYDKEGNGYISTDVMREILAELDETLSSEDLDAMIREIDADGSGTVDFEEFMGVMT [D43R],2.35
7,ELREAFRLYDKEGNGYISTDVMREILAELDETLSSEDLDAMISEIDADGSGTVDFEEFMGVMT [D43S],2.18
8,ELREAFRLYDKEGNGYISTDVMREILAELDETLSSEDLDAMITEIDADGSGTVDFEEFMGVMT [D43T],1.89
9,ELREAFRLYDKEGNGYISTDVMREILAELDETLSSEDLDAMIVEIDADGSGTVDFEEFMGVMT [D43V],1.96
10,ELREAFRLYDKEGNGYISTDVMREILAELDETLSSEDLDAMIWEIDADGSGTVDFEEFMGVMT [D43W],2.16
11,ELREAFRLYDKEGNGYISTDVMREILAELDETLSSEDLDAMIYEIDADGSGTVDFEEFMGVMT [D43Y],2.16
12,ELREAFRLYDKEGNGYISTDVMREILAELDETLSSEDLDAMIDAIDADGSGTVDFEEFMGVMT [E44A],2.12
13,ELREAFRLYDKEGNGYISTDVMREILAELDETLSSEDLDAMIDCIDADGSGTVDFEEFMGVMT [E44C],2.19
14,ELREAFRLYDKEGNGYISTDVMREILAELDETLSSEDLDAMIDDIDADGSGTVDFEEFMGVMT [E44D],1.76
15,ELREAFRLYDKEGNGYISTDVMREILAELDETLSSEDLDAMIDFIDADGSGTVDFEEFMGVMT [E44F],2.17
16,ELREAFRLYDKEGNGYISTDVMREILAELDETLSSEDLDAMIDGIDADGSGTVDFEEFMGVMT [E44G],1.85
17,ELREAFRLYDKEGNGYISTDVMREILAELDETLSSEDLDAMIDHIDADGSGTVDFEEFMGVMT [E44H],2.06
18,ELREAFRLYDKEGNGYISTDVMREILAELDETLSSEDLDAMIDIIDADGSGTVDFEEFMGVMT [E44I],2.07
19,ELREAFRLYDKEGNGYISTDVMREILAELDETLSSEDLDAMIDKIDADGSGTVDFEEFMGVMT [E44K],2.14
20,ELREAFRLYDKEGNGYISTDVMREILAELDETLSSEDLDAMIDLIDADGSGTVDFEEFMGVMT [E44L],2.19
21,ELREAFRLYDKEGNGYISTDVMREILAELDETLSSEDLDAMIDMIDADGSGTVDFEEFMGVMT [E44M],2.14
22,ELREAFRLYDKEGNGYISTDVMREILAELDETLSSEDLDAMIDNIDADGSGTVDFEEFMGVMT [E44N],1.95

row,Variant,folding stability dG [kcal/mol]
1,ELREAFRLYDKEGNGYISTDVMREILAELDETLSSEDLDAMIDPIDADGSGTVDFEEFMGVMT [E44P],0.7
2,ELREAFRLYDKEGNGYISTDVMREILAELDETLSSEDLDAMIDQIDADGSGTVDFEEFMGVMT [E44Q],2.06
3,ELREAFRLYDKEGNGYISTDVMREILAELDETLSSEDLDAMIDRIDADGSGTVDFEEFMGVMT [E44R],2.16
4,ELREAFRLYDKEGNGYISTDVMREILAELDETLSSEDLDAMIDSIDADGSGTVDFEEFMGVMT [E44S],2.02
5,ELREAFRLYDKEGNGYISTDVMREILAELDETLSSEDLDAMIDTIDADGSGTVDFEEFMGVMT [E44T],1.93
6,ELREAFRLYDKEGNGYISTDVMREILAELDETLSSEDLDAMIDVIDADGSGTVDFEEFMGVMT [E44V],2.01
7,ELREAFRLYDKEGNGYISTDVMREILAELDETLSSEDLDAMIDWIDADGSGTVDFEEFMGVMT [E44W],2.19
8,ELREAFRLYDKEGNGYISTDVMREILAELDETLSSEDLDAMIDYIDADGSGTVDFEEFMGVMT [E44Y],2.02
9,ELREAFRLYDKEGNGYISTDVMREILAELDETLSSEDLDAMIDEADADGSGTVDFEEFMGVMT [I45A],1.56
10,ELREAFRLYDKEGNGYISTDVMREILAELDETLSSEDLDAMIDECDADGSGTVDFEEFMGVMT [I45C],0.783
11,ELREAFRLYDKEGNGYISTDVMREILAELDETLSSEDLDAMIDEFDADGSGTVDFEEFMGVMT [I45F],1.21
12,ELREAFRLYDKEGNGYISTDVMREILAELDETLSSEDLDAMIDEGDADGSGTVDFEEFMGVMT [I45G],0.37
13,ELREAFRLYDKEGNGYISTDVMREILAELDETLSSEDLDAMIDEHDADGSGTVDFEEFMGVMT [I45H],0.664
14,ELREAFRLYDKEGNGYISTDVMREILAELDETLSSEDLDAMIDEKDADGSGTVDFEEFMGVMT [I45K],-0.192
15,ELREAFRLYDKEGNGYISTDVMREILAELDETLSSEDLDAMIDELDADGSGTVDFEEFMGVMT [I45L],1.74
16,ELREAFRLYDKEGNGYISTDVMREILAELDETLSSEDLDAMIDEMDADGSGTVDFEEFMGVMT [I45M],1.93
17,ELREAFRLYDKEGNGYISTDVMREILAELDETLSSEDLDAMIDENDADGSGTVDFEEFMGVMT [I45N],-0.113
18,ELREAFRLYDKEGNGYISTDVMREILAELDETLSSEDLDAMIDEPDADGSGTVDFEEFMGVMT [I45P],-0.366
19,ELREAFRLYDKEGNGYISTDVMREILAELDETLSSEDLDAMIDEQDADGSGTVDFEEFMGVMT [I45Q],0.111
